From patent US20210087271A1
Where “and” joins values, the source holds several entries; their conditions need not be identical. Identical values can stand only once.

How the values were obtained:
[1] = biological target: FcγRIIIA (human) (UniProt P08637); test: SPR Biacore 8K; IgG captured on biotinylated CD3 peptide SA chip; 1 µM FcγRIIIA, pH 7.4
[2] = biological target: C1q (UniProt P02745); test: flow cytometry; antibody on CD3 peptide-coated SA Dyna Beads incubated with C1q
[3] = biological target: FcγRI (human) (UniProt P12314); test: SPR Biacore 8K; IgG captured on biotinylated CD3 peptide SA chip; 100 nM FcγRI, pH 7.4
[4] = biological target: FcγR on THP-1 cells; test: flow cytometry; 100 nM antibody pre-complexed with 10 nM biotinylated CD3 peptide, on THP-1 cells
[5] = biological target: FcγRIIA (human) (UniProt P12318); test: SPR Biacore 8K; IgG captured on biotinylated CD3 peptide SA chip; 1 µM FcγRIIA, pH 7.4
[6] = biological target: FcRn (UniProt P55899); test: SPR Biacore 8K; IgG captured on biotinylated CD3 peptide SA chip; 1 µM FcRn, pH 6.0
[7] = biological target: C1q (UniProt P02745); test: SPR Biacore 8K; IgG captured on biotinylated CD3 peptide SA chip; 1 µM C1q, pH 7.4
[8] = biological target: FcγRI (human) (UniProt P12314); test: SPR Biacore 8K, response vs WT
[9] = biological target: FcγRIIA (human) (UniProt P12318); test: SPR Biacore 8K, response vs WT
[10] = biological target: CD3; test: BLI ForteBio; IgG on AHQ sensor, 100 nM antigen, 1:1 model

Chain of UniProt P08637 (P08637 17-208 limits assumed): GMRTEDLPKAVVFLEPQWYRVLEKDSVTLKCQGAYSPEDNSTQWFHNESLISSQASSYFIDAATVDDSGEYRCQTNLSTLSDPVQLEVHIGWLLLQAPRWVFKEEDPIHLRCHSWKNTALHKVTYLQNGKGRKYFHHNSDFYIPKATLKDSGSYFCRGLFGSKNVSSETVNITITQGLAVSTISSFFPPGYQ
Chain of UniProt P12318 (P12318 36-218 limits assumed): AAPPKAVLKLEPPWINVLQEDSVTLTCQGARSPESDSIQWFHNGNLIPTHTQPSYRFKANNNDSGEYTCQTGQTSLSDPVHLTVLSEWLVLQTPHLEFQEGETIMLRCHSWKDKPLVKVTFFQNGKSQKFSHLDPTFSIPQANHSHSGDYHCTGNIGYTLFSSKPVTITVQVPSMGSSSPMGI
Chain of UniProt P12314 (P12314 16-288 limits assumed): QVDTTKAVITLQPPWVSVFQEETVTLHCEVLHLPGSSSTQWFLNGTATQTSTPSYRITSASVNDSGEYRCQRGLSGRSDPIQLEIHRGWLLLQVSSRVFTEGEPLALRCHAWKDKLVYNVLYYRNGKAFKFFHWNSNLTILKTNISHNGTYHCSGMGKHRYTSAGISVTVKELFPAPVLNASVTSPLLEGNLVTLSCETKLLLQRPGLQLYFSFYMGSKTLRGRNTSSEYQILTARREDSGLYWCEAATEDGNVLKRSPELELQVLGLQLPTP
Chain of UniProt P02745 (P02745 23-245 limits assumed, chain 1 of 3): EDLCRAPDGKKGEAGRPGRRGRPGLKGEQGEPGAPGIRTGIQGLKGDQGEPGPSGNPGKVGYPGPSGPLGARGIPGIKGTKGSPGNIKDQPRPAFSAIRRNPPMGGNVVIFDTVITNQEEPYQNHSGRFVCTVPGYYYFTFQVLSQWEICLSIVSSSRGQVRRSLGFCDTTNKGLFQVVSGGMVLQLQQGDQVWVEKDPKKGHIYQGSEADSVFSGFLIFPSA
Chain of UniProt P02745 (P02746 28-253 limits assumed, chain 2 of 3, further chain): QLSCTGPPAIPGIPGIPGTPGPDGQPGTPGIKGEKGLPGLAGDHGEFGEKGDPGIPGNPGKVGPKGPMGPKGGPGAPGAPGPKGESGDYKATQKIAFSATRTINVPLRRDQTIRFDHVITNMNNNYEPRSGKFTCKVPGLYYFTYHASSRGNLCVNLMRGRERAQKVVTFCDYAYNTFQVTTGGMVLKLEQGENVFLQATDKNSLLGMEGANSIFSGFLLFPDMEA
Chain of UniProt P02745 (P02747 29-245 limits assumed, chain 3 of 3, further chain): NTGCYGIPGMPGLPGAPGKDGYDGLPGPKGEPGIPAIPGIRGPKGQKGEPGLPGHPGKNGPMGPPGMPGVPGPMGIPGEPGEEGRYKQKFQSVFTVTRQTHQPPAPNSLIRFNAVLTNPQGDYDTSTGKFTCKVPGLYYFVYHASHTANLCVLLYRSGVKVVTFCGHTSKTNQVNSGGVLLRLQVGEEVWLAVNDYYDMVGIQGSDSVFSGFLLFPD

| Substance | late association response (RU) [1] [RU] | C1q Binding (MFI) [2] [MFI] | late association response (RU) [3] [RU] | THP-1 Binding (MFI) [4] [MFI] | late association response (RU) [5] [RU] | late association response (RU) [6] [RU] | late association response (RU) [7] [RU] | % reduction of binding compared to WT [8] | % reduction of binding compared to WT [9] | Kd [10] [nM] |
| --- | --- | --- | --- | --- | --- | --- | --- | --- | --- | --- |
| LALE-PA variant of the CD3 antibody (WT engineered to contain L234A and L235E and P329A) (from UniProt P01857 1-330) | -0.1 | 660 | 0.8 | 124 | -0.1 | 38.1 | -23.3 |  |  |  |
| LALA variant of the CD3 antibody (WT engineered to contain L234A and L235A) (from UniProt P01857 1-330) | 0.6 | 1980 | 23.5 | 5270 | 0.1 | 44 | -13.9 |  |  |  |
| LALE variant of the CD3 antibody (WT engineered to contain L234A and L235E) (from UniProt P01857 1-330) | 0.4 | 1790 |  | 5300 | 0.1 | 38.9 | -27.3 |  |  |  |

Continued, values first:

| late association response (RU) [1] [RU] | C1q Binding (MFI) [2] [MFI] | late association response (RU) [3] [RU] | THP-1 Binding (MFI) [4] [MFI] | late association response (RU) [5] [RU] | late association response (RU) [6] [RU] | late association response (RU) [7] [RU] | % reduction of binding compared to WT [8] | % reduction of binding compared to WT [9] | Kd [10] [nM] | Substance |
| --- | --- | --- | --- | --- | --- | --- | --- | --- | --- | --- |
| -0.3 | 865 | 0.8 | 124 | 0 | 37.3 | -6.5 | 99.1% | 100% |  | LALE-PG variant of the CD3 antibody (WT engineered to contain L234A and L235E and P329G) (from UniProt P01857 1-330) |
| -0.5 | 621 |  | 169 | -0.1 | 45.1 | -3.3 | > 95% and 97.6% | > 95% and 100% | 3.9 | LALA-PA variant of the CD3 antibody (WT engineered to contain L234A and L235A and P329A) (from UniProt P01857 1-330) |
| -0.3 | 676 | 2 | 146 | -0.1 | 44.5 | -25.1 |  |  |  | LALA-PG variant of the CD3 antibody (WT engineered to contain L234A and L235A and P329G) (from UniProt P01857 1-330) |
